The chains are these.
B2: GST-POP3 (other)
chain: MESKYKEILLLTSLDNITDEELDRFKCFLPDEFNIATGKLHTLNSTSSQLDLKRWHGVCSEEDRIFQKLNYMLVAKCLREEQETGICGSPSSARSVSQSRLGLSFHGISGNAC
notes: also called recombinant POP3; immobilized GST-POP3; not shown: glutathione S-transferase (GST) tag encoded by pGEX-4T1

Data set [1] deals with the molecule itself. Briefly: co-IP in HEK293 cells.
Data set [2] addresses T1, AIM2 (human, UniProt O14862 1-343).
T1 construct: Endogenous in THP-1 lysates and hMΦ; N-terminally tagged (RFP, myc) where transfected into HEK293; also called endogenous AIM2; RFP-AIM2
T1 sequence (looked up): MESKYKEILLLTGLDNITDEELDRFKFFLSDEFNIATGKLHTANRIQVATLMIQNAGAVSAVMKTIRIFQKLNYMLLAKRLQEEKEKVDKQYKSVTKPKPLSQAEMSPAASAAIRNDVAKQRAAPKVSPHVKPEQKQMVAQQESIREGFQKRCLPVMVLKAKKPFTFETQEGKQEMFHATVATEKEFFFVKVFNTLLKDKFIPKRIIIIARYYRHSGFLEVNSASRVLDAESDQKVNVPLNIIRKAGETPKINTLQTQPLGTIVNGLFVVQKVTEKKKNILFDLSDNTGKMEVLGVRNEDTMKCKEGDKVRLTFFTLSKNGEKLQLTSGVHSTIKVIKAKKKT
Briefly: figure title (pull-down, co-IP, co-localisation).

Data set [3] addresses T2, mouse ASC (mouse, UniProt Q9EPB4 1-193).
T2 construct: also called mASC; endogenous ASC in BMDM
T2 sequence (looked up): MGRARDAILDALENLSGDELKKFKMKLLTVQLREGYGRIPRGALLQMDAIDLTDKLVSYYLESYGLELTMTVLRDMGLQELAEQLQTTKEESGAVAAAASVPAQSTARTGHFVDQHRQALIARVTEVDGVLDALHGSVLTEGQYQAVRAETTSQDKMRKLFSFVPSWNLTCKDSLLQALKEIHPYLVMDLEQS
In words: GST pull-down from BMDM lysates (FIG. 11a). Here is the method: For GST pull down experiments, POP3 was cloned into pGEX-4T1 and affinity purified as a GST fusion protein from E. coli BL21. Proteins were either prepared by in vitro transcription/translation (TNT Quick Coupled Transcription/Translation, Promega), or TCL were prepared from […] (16 hrs) BMDM or THP-1 cells by lysis (50 mM Hepes pH 7.4, 120 mM NaCl, 10% Glycerol, 2 mM EDTA, 0.5% Triton X-100, supplemented with protease inhibitors) as a source of endogenous proteins, and cleared lysates were incubated with immobilized GST-POP3 or GST control for 16 hrs at 4° C., followed by extensive washing with lysis buffer and analysis as above. For ASC cross-linking, 4×10⁶ BMDM were seeded in 60 mm plates and subjected to cross-linking as described 55. […] Samples were centrifuged at 5,000 rpm for 10 min at 4° C. and the cross-linked pellets were resuspended in 50 μl Laemmli sample buffer and analyzed by immunoblot. […]
The PYDs of human and mouse ALRs are well conserved. […] To delineate the mechanism by which POP3 inhibits ALR inflammasomes in mouse macrophages, ASC oligomerization was analyzed in response to AIM2 inflammasome stimulation with poly(dA:dT) in WT and CD68-POP3 TG BMDM as a readout for AIM2 inflammasome formation (Fernandes-Alnemri et al. Nature.

Data set [4] deals with T3, GST control (UniProt P08515 1-218 = GST).
T3 construct: Negative control of the GST pull-downs
In words: GST pull-down (FIG. 4a). How it is done: (§1) For GST pull down experiments, POP3 was cloned into pGEX-4T1 and affinity purified as a GST fusion protein from E. coli BL21. Proteins were either prepared by in vitro transcription/translation (TNT Quick Coupled Transcription/Translation, Promega), or TCL were prepared from […] (16 hrs) BMDM or THP-1 cells by lysis (50 mM Hepes pH 7.4, 120 mM NaCl, 10% Glycerol, 2 mM EDTA, 0.5% Triton X-100, supplemented with protease inhibitors) as a source of endogenous proteins, and cleared lysates were incubated with immobilized GST-POP3 or GST control for 16 hrs at 4° C., followed by extensive washing with lysis buffer and analysis as above. For ASC cross-linking, 4×10⁶ BMDM were seeded in 60 mm plates and subjected to cross-linking as described 55. Briefly, cells were transfected with 1 μg/ml poly (dA:dT) for 5 hrs, supernatants were removed, cells rinsed with ice-cold PBS and lysed (20 mM Hepes pH 7.4, 100 mM NaCl, 1% NP-40, 1 mM sodium orthovanadate, supplemented with protease inhibitors) and further lysed by shearing. Cleared lysates were stored for immunoblot analysis and the insoluble pellets were resuspended in 500 μl PBS, supplemented with 2 mM disuccinimydyl suberate (DSS, Pierce) and incubated with rotation at room temperature for 30 min. Samples were centrifuged at 5,000 rpm for 10 min at 4° C. and the cross-linked pellets were resuspended in 50 μl Laemmli sample buffer and analyzed by immunoblot. Human lung tissue was embedded in paraffin, cut into 3 μm sections, mounted, deparaffinized and immunostained with mouse monoclonal CD68 (Dako) and rabbit polyclonal POP3 and peroxidase (HRP)/DAB+ and alkaline phosphatase (AP)/Fast Red enzyme/chromogen combinations (Dako) and specific isotype controls (Dako) and haemotoxylin counterstaining of nuclei.
(§2) GST-POP3, but not GST control, bound to the PYD of AIM2 and IF116.

The target of data set [5] is B2. Briefly: GST pull-down (FIG. 4a). Here is the method:
as §1, §2

Data set [6] concerns the target T4, AIM2 from BMDM (mouse, UniProt Q91VJ1 1-354).
T4 construct: also called mAIM2; mouse AIM2
T4 sequence (looked up): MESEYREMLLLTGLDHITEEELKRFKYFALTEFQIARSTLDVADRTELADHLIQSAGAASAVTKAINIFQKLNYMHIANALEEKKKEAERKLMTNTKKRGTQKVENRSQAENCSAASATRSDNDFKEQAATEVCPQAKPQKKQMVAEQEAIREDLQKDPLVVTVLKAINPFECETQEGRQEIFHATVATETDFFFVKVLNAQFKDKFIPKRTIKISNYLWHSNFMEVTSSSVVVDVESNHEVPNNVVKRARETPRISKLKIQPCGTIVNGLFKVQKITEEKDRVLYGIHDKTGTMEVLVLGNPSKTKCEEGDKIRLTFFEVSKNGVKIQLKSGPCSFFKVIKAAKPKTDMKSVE
In words: GST pull-down from BMDM lysates (FIG. 22c). How it is done: (§3) POP1 was expressed from pGEX-4T1 and affinity purified as a GST fusion protein from E. coli BL21 (Stehlik et al. Biochem. J 373, 101-113 (2003); herein incorporated by reference in its entirety). Protein lysates were prepared from LPS-treated (16 h) BMDM or THP-1 cells by lysis (50 mM Hepes pH 7.4, 120 mM NaCl, 10% Glycerol, 2 mM EDTA, 0.5% Triton X-100, supplemented with protease inhibitors), and cleared lysates were incubated with immobilized GST-POP1 or GST control for 16 h at 4° C., followed by extensive washing with lysis buffer and analysis as above.

The target of data set [7] is T5, NLRP3 from BMDM (mouse, UniProt Q8R4B8 1-1033).
T5 construct: also called mNLRP3; mouse NLRP3
In words: GST pull-down from BMDM lysates (FIG. 22c). Here is the method: as §3

Data set [8] addresses T6, NLRP3 (human, UniProt Q96P20 1-1036).
T6 construct: Endogenous in THP-1 lysates; MYC-tagged where transfected into HEK293; also called MYC-NLRP3; endogenous NLRP3
Briefly: GST pull-down from THP-1 lysates (FIG. 18a). How it is done:
as §3
(§4) Recruitment of ASC to upstream sensors is essential for inflammasome activation. POP1 specifically bound to endogenous ASC, but not to the PYD-containing PRRs NLRP3 and AIM2 in LPS-primed THP-1 cells (FIG. 18a), emphasizing the selectivity of these interactions. […] Binding of ASC to NLRP3 induces ASC^PYD nucleation, which provides the oligomeric platform essential for caspase-1 activation (Lu et al. Cell 156, 1193-206 (2014); Cai et al. Cell 156, 1207-22 (2014); herein incorporated by reference in their entireties). […] POP1 binding to the ASC^PYD could also directly prevent ASC^PYD self-polymerization.

The target of data set [9] is T1, AIM2. In words: GST pull-down from THP-1 lysates (FIG. 18a). Here is the method: as §3, §4

T3 sequence (P08515 whole entry): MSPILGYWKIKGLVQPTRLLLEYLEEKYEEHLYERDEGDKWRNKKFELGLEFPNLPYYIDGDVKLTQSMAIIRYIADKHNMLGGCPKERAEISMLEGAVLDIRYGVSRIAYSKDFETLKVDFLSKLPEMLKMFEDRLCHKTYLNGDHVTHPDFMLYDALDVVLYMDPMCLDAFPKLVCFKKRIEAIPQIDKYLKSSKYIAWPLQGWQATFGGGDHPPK
T6 sequence (Q96P20 whole entry): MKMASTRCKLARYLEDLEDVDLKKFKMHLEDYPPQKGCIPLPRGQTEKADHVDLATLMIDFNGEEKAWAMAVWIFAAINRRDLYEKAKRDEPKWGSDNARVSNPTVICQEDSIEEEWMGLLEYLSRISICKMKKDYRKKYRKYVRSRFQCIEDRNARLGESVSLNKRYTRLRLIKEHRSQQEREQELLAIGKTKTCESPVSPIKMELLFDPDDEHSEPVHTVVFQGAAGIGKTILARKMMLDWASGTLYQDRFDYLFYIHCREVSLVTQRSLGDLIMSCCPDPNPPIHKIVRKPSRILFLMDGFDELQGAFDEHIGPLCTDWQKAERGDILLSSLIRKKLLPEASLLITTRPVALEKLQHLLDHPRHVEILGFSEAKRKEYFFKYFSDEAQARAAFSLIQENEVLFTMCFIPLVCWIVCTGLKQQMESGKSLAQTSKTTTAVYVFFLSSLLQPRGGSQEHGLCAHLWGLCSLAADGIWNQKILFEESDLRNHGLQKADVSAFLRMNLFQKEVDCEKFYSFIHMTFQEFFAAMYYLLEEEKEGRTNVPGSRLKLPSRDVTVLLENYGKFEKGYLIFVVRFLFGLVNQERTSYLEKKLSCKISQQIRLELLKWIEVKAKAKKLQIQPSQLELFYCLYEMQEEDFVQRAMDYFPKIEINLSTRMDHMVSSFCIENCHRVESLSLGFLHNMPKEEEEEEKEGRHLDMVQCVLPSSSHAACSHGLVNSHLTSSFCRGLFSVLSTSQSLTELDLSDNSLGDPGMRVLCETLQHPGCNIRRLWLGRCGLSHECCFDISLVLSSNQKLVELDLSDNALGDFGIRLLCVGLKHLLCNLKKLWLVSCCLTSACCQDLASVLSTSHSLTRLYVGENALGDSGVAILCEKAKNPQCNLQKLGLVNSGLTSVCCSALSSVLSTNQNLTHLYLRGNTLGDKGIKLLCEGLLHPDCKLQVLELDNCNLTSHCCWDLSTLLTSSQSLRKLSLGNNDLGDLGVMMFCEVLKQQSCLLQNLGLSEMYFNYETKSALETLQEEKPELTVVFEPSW
T5 sequence (Q8R4B8 whole entry): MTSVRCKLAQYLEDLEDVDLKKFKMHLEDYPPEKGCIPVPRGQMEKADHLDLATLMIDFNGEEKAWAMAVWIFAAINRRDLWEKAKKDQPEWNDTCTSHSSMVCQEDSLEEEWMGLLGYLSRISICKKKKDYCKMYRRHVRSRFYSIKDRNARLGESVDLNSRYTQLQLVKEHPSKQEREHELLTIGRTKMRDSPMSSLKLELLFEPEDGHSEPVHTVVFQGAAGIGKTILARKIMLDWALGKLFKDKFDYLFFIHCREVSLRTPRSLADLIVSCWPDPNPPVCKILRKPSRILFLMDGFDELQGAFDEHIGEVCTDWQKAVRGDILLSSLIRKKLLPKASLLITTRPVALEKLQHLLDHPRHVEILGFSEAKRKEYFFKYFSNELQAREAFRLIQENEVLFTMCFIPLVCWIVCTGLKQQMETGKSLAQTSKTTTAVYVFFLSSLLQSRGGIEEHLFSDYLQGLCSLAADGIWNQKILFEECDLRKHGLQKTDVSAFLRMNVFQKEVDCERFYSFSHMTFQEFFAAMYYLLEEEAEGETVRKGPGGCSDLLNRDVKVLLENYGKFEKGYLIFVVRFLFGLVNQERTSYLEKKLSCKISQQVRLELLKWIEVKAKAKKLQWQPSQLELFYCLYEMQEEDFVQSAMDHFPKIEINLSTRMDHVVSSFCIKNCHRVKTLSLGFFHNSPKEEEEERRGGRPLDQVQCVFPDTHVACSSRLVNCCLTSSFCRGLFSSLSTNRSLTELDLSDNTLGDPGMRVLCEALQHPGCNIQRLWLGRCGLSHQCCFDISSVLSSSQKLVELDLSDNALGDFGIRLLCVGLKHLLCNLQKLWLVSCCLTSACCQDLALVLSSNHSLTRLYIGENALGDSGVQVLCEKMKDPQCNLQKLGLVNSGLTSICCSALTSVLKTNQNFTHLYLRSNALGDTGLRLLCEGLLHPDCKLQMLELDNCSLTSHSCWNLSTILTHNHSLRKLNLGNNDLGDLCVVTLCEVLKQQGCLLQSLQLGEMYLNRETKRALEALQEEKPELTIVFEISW

B1: POP3 (other)
chain: MESKYKEILLLTSLDNITDEELDRFKCFLPDEFNIATGKLHTLNSTSSQLDLKRWHGVCSEEDRIFQKLNYMLVAKCLREEQETGICGSPSSARSVSQSRLGLSFHGISGNAC
notes: POP3 as expressed in cells (HEK293, THP-1, hMΦ); in some microscopy endogenous POP3; also called GFP-POP3; PYRIN domain-only protein 3; not shown: N-terminal tag; GFP-POP3 is named for the co-IP, constructs with myc, HA, Flag, GFP or RFP were made
For B1, the binding result in [1] and in data set [2] was “binds” each time.
Turning to B2, the binding result in [3] was “no binding”.

B3: PYD of AIM2 (other, human, UniProt O14862 1-87, looked up)
chain: MESKYKEILLLTGLDNITDEELDRFKFFLSDEFNIATGKLHTANRIQVATLMIQNAGAVSAVMKTIRIFQKLNYMLLAKRLQEEKEK
notes: domain: PYD; Made by in vitro transcription/translation for the GST pull-down; GFP- or RFP-tagged in HEK293 for the antibody specificity blot; also called AIM2-PYD
As to B3, the binding result in data set [4] is listed as “no binding”.

B4: PYD of IFI16 (other, human, UniProt Q16666 1-88, looked up)
chain: MGKKYKNIVLLKGLEVINDYHFRMVKSLLSNDLKLNLKMREEYDKIQIADLMEEKFRGDAGLGKLIKIFEDIPTLEDLAETLKKEKLK
notes: domain: PYD; also called IFI16-PYD; IF116 PYD
On to B4, for which the binding result in data set [4] is listed as “no binding”.

B5: PYD of PYHIN1 (other, human, UniProt Q6K0P9 1-88, looked up)
chain: MANNYKKIVLLKGLEVINDYHFRIVKSLLSNDLKLNPKMKEEYDKIQIADLMEEKFPGDAGLGKLIEFFKEIPTLGDLAETLKREKLK
notes: domain: PYD; also called IFIX-PYD
Regarding B5, the binding result in data set [5] is “no binding”.

B6: PYD of MNDA (other, human, UniProt P41218 1-88, looked up)
chain: MVNEYKKILLLKGFELMDDYHFTSIKSLLAYDLGLTTKMQEEYNRIKITDLMEKKFQGVACLDKLIELAKDMPSLKNLVNNLRKEKSK
notes: domain: PYD; also called MNDA-PYD
As for B6, the binding result in data set [5] is given as “no binding”.

B7: GST-POP1 (other)
chain: MGTKREAILKVLENLTPEELKKFKMKLGTVPLREGFERIPRGALGQLDIVDLTDKLVASYYEDYAAELVVAVLRDMRMLEEAARLQRAA
notes: also called immobilized GST-POP1; not shown: glutathione S-transferase (GST) tag encoded by pGEX-4T1
Take B7: the binding result in data set [6], in data set [7], in data set [8] and in data set [9] was “no binding” each time.

For the origin of these results see patent publication US20160354437A1 (NORTHWESTERN UNIVERSITY, published 2016).
